# From patent publication US20260055182A1 (CIS BIOPHARMA, published 2026)
# Molecular target: T1, L1-CAM recombinant protein (His Tag), human (human, UniProt P32004 20-1120)
# T1 construct: Bought protein; also called CD171; human L1-CAM; not shown: His tag
# Assay: ELISA, human L1-CAM coated at 2 µg/ml
# T1 sequence (P32004 20-1120 limits assumed): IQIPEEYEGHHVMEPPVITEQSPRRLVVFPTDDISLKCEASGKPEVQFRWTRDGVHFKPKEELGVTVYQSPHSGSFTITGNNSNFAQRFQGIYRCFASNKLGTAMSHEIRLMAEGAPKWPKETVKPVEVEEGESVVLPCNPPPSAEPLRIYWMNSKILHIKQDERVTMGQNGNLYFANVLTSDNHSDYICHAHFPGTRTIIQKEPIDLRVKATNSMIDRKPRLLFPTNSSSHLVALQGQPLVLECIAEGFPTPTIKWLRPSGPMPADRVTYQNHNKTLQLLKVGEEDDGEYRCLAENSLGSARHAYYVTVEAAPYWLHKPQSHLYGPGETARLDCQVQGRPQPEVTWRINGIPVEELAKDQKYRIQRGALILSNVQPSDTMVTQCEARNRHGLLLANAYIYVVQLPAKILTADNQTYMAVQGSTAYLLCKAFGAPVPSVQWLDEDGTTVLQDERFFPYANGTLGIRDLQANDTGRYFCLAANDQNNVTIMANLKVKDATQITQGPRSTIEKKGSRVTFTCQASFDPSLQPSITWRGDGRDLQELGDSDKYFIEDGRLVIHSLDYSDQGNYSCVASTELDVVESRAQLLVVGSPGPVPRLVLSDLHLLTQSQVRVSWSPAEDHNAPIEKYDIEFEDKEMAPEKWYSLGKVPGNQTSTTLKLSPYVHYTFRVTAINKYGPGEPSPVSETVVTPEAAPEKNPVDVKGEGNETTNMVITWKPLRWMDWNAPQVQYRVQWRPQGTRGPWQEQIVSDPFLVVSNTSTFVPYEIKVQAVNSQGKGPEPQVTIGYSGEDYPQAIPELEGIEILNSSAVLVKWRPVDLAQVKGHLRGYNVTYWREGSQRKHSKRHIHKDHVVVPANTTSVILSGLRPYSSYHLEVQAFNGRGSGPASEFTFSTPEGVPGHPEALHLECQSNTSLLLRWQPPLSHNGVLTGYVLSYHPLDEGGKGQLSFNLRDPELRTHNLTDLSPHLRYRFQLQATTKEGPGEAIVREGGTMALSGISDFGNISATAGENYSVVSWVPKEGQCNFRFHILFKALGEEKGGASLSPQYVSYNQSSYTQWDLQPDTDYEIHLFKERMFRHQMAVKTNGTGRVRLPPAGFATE
row,Binder,EC50
1,"CE7-variant1 (antibody, V domains shown, Human IgG1 kappa, L234A L235A P331S; also called CE7-12-VHA-1NL1-VLA; humanized variant 1) VH: QVQLVQSGAEVKKPGASVKVSCKASGYTFTGYWMHWVRQAPGQGLEWIGEINPSNGRTNYNERFKSRVTLTVDKSISTAYMELSRLRSDDTAVYFCARDYYGTSYNFDYWGQGTLVTVSS VL: DIQMTQSPSSLSASVGDRVTITCKANEDINNRLAWYQQKPGKAPKLLISGATNLVTGVPSRFSGSGSGKDYTLTISSLQPEDFATYYCQQYWSTPFTFGQGTKLEIKR",0.0288 µg/mL
2,"CE7-variant5 (antibody, V domains shown, Human IgG1 kappa, L234A L235A P331S; also called CE7-12-VHA-315-VLA; humanized variant 5) VH: QVQLVQSGAEVKKPGASVKVSCKASGYTFTGYWMHWVRQAPGQGLEWIGEINPSNGRTNYNERFKSRVTLTVDKSISTAYMELSRLRSDDTAVYFCARDYYGTSYNFDYWGQGTLVTVSS VL: EIVMTQSPATLSVSPGERATLSCKANEDINNRLAWYQQKPGQAPRLLISGATNLVTGIPARFSGSGSGKEYTLTISSLQSEDFAVYYCQQYWSTPFTFGQGTKLEIKR",0.0282 µg/mL
3,"CE7-variant6 (antibody, V domains shown, Human IgG1 kappa, L234A L235A P331S; also called CE7-12-VHA-315-VLB; humanized variant 6) VH: QVQLVQSGAEVKKPGASVKVSCKASGYTFTGYWMHWVRQAPGQGLEWIGEINPSNGRTNYNERFKSRVTLTVDKSISTAYMELSRLRSDDTAVYFCARDYYGTSYNFDYWGQGTLVTVSS VL: EIVMTQSPATLSVSPGERATLSCRANEDINNRLAWYQQKPGQAPRLLISGATNLVTGIPARFSGSGSGKEFTLTISSLQSEDFAVYYCQQYWSTPFTFGQGTKLEIKR",0.0255 µg/mL
4,"CE7-variant10 (antibody, V domains shown, Human IgG1 kappa, L234A L235A P331S; also called CE7-12-VHB-133-VLB; humanized variant 10) VH: QVQLVQSGAEVKKPGASVKVSCKASGYTFTGYWMHWVRQAPGQGLEWIGEINPSNGRTNYNERFQGRVTLTVDKSISTAYMELSRLRSDDTAVYYCARDYYGTSYNFDYWGQGTLVTVSS VL: DIQMTQSPSSLSASVGDRVTITCQANEDINNRLAWYQQKPGKAPKLLISGATNLVTGVPSRFSGSGSGKDYTFTISSLQPEDIATYYCQQYWSTPFTFGQGTKLEIKR",0.0136 µg/mL
5,"CE7-variant9 (antibody, V domains shown, Human IgG1 kappa, L234A L235A P331S; also called CE7-12-VHB-133-VLA; humanized variant 9) VH: QVQLVQSGAEVKKPGASVKVSCKASGYTFTGYWMHWVRQAPGQGLEWIGEINPSNGRTNYNERFQGRVTLTVDKSISTAYMELSRLRSDDTAVYYCARDYYGTSYNFDYWGQGTLVTVSS VL: DIQMTQSPSSLSASVGDRVTITCKANEDINNRLAWYQQKPGKAPKLLISGATNLVTGVPSRFSGSGSGKDYTLTISSLQPEDIATYYCQQYWSTPFTFGQGTKLEIKR",0.0197 µg/mL
6,"CE7-variant8 (antibody, V domains shown, Human IgG1 kappa, L234A L235A P331S; also called CE7-12-VHB-1NL1-VLB; humanized variant 8) VH: QVQLVQSGAEVKKPGASVKVSCKASGYTFTGYWMHWVRQAPGQGLEWIGEINPSNGRTNYNERFQGRVTLTVDKSISTAYMELSRLRSDDTAVYYCARDYYGTSYNFDYWGQGTLVTVSS VL: DIQMTQSPSSLSASVGDRVTITCRANEDINNRLAWYQQKPGKAPKLLISGATNLVTGVPSRFSGSGSGKDYTLTISSLQPEDFATYYCQQYWSTPFTFGQGTKLEIKR",0.0129 µg/mL
7,"CE7-variant2 (antibody, V domains shown, Human IgG1 kappa, L234A L235A P331S; also called CE7-12-VHA-1NL1-VLB; humanized variant 2) VH: QVQLVQSGAEVKKPGASVKVSCKASGYTFTGYWMHWVRQAPGQGLEWIGEINPSNGRTNYNERFKSRVTLTVDKSISTAYMELSRLRSDDTAVYFCARDYYGTSYNFDYWGQGTLVTVSS VL: DIQMTQSPSSLSASVGDRVTITCRANEDINNRLAWYQQKPGKAPKLLISGATNLVTGVPSRFSGSGSGKDYTLTISSLQPEDFATYYCQQYWSTPFTFGQGTKLEIKR",0.0128 µg/mL
8,"CE7-variant4 (antibody, Human IgG1 kappa, L234A L235A P331S; also called CE7-12-VHA-133-VLB; humanized variant 4) heavy: QVQLVQSGAEVKKPGASVKVSCKASGYTFTGYWMHWVRQAPGQGLEWIGEINPSNGRTNYNERFKSRVTLTVDKSISTAYMELSRLRSDDTAVYFCARDYYGTSYNFDYWGQGTLVTVSSASTKGPSVFPLAPSSKSTSGGTAALGCLVKDYFPEPVTVSWNSGALTSGVHTFPAVLQSSGLYSLSSVVTVPSSSLGTQTYICNVNHKPSNTKVDKKVEPKSCDKTHTCPPCPAPEAAGGPSVFLFPPKPKDTLMISRTPEVTCVVVDVSHEDPEVKFNWYVDGVEVHNAKTKPREEQYNSTYRVVSVLTVLHQDWLNGKEYKCKVSNKALPASIEKTISKAKGQPREPQVYTLPPSREEMTKNQVSLTCLVKGFYPSDIAVEWESNGQPENNYKTTPPVLDSDGSFFLYSKLTVDKSRWQQGNVFSCSVMHEALHNHYTQKSLSLSPGK light: not shown",0.012 µg/mL

# More lines, now with the values ahead:
row,EC50,Binder
1,0.0396 µg/mL,"CE7-variant24 (antibody, V domains shown, CE7-1-2-VHC + CE7-1-NL1-VLD; human IgG1 kappa, L234A L235A P331S N297A (aglycosylated); also called humanized variant 24) VH: QVQLVQSGAEVKKPGASVKVSCKASGYTFTGYWMHWVRQAPGQGLEWIGEINPSNGRTNYNEKFQGRVTLTVDKSISTAYMELSRLRSDDTAVYYCARDYYGTSYNFDYWGQGTLVTVSS VL: DIQMTQSPSSLSASVGDRVTITCRASQGINNRLAWYQQKPGKAPKLLISGASNLVSGVPSRFSGSGSGKDYTLTISSLQPEDFATYYCQQYWSTPFTFGQGTKLEIKR"
2,0.0317 µg/mL,"CE7-variant20 (antibody, V domains shown, CE7-1-2-VHB + CE7-1-NL1-VLD; human IgG1 kappa, L234A L235A P331S N297A (aglycosylated); also called humanized variant 20) VH: QVQLVQSGAEVKKPGASVKVSCKASGYTFTGYWMHWVRQAPGQGLEWIGEINPSNGRTNYNERFQGRVTLTVDKSISTAYMELSRLRSDDTAVYYCARDYYGTSYNFDYWGQGTLVTVSS VL: DIQMTQSPSSLSASVGDRVTITCRASQGINNRLAWYQQKPGKAPKLLISGASNLVSGVPSRFSGSGSGKDYTLTISSLQPEDFATYYCQQYWSTPFTFGQGTKLEIKR"
3,0.0335 µg/mL,"CE7-variant19 (antibody, V domains shown, CE7-1-2-VHB + CE7-1-NL1-VLC; human IgG1 kappa, L234A L235A P331S N297A (aglycosylated); also called humanized variant 19) VH: QVQLVQSGAEVKKPGASVKVSCKASGYTFTGYWMHWVRQAPGQGLEWIGEINPSNGRTNYNERFQGRVTLTVDKSISTAYMELSRLRSDDTAVYYCARDYYGTSYNFDYWGQGTLVTVSS VL: DIQMTQSPSSLSASVGDRVTITCRANEDINNRLAWYQQKPGKAPKLLISGASNLVSGVPSRFSGSGSGKDYTLTISSLQPEDFATYYCQQYWSTPFTFGQGTKLEIKR"
4,0.0272 µg/mL,"CE7-variant25 (antibody, V domains shown, CE7-1-2-VHD + CE7-1-NL1-VLA; human IgG1 kappa, L234A L235A P331S N297A (aglycosylated); also called humanized variant 25) VH: QVQLVQSGAEVKKPGASVKVSCKASGYTFTGYWMHWVRQAPGQGLEWMGEINPSNGRTNYNEKFQGRVTLTVDKSISTAYMELSRLRSDDTAVYYCARDYYGTSYNFDYWGQGTLVTVSS VL: DIQMTQSPSSLSASVGDRVTITCKANEDINNRLAWYQQKPGKAPKLLISGATNLVTGVPSRFSGSGSGKDYTLTISSLQPEDFATYYCQQYWSTPFTFGQGTKLEIKR"
5,0.024 µg/mL,"CE7-variant22 (antibody, V domains shown, CE7-1-2-VHC + CE7-1-NL1-VLB; human IgG1 kappa, L234A L235A P331S N297A (aglycosylated); also called humanized variant 22) VH: QVQLVQSGAEVKKPGASVKVSCKASGYTFTGYWMHWVRQAPGQGLEWIGEINPSNGRTNYNEKFQGRVTLTVDKSISTAYMELSRLRSDDTAVYYCARDYYGTSYNFDYWGQGTLVTVSS VL: DIQMTQSPSSLSASVGDRVTITCRANEDINNRLAWYQQKPGKAPKLLISGATNLVTGVPSRFSGSGSGKDYTLTISSLQPEDFATYYCQQYWSTPFTFGQGTKLEIKR"
6,0.0299 µg/mL,"CE7-variant21 (antibody, V domains shown, CE7-1-2-VHC + CE7-1-NL1-VLA; human IgG1 kappa, L234A L235A P331S N297A (aglycosylated); also called humanized variant 21) VH: QVQLVQSGAEVKKPGASVKVSCKASGYTFTGYWMHWVRQAPGQGLEWIGEINPSNGRTNYNEKFQGRVTLTVDKSISTAYMELSRLRSDDTAVYYCARDYYGTSYNFDYWGQGTLVTVSS VL: DIQMTQSPSSLSASVGDRVTITCKANEDINNRLAWYQQKPGKAPKLLISGATNLVTGVPSRFSGSGSGKDYTLTISSLQPEDFATYYCQQYWSTPFTFGQGTKLEIKR"
7,0.037 µg/mL,"CE7-variant23 (antibody, V domains shown, CE7-1-2-VHC + CE7-1-NL1-VLC; human IgG1 kappa, L234A L235A P331S N297A (aglycosylated); also called humanized variant 23) VH: QVQLVQSGAEVKKPGASVKVSCKASGYTFTGYWMHWVRQAPGQGLEWIGEINPSNGRTNYNEKFQGRVTLTVDKSISTAYMELSRLRSDDTAVYYCARDYYGTSYNFDYWGQGTLVTVSS VL: DIQMTQSPSSLSASVGDRVTITCRANEDINNRLAWYQQKPGKAPKLLISGASNLVSGVPSRFSGSGSGKDYTLTISSLQPEDFATYYCQQYWSTPFTFGQGTKLEIKR"
